Biological target: Full-length Panx, HA-tagged (UniProt Q9W2H9)
Assay: FLAG-tag co-immunoprecipitation, western blot quantification
Settings: lysates of transfected S2 cells; parent: est. 0; read off a plot

Full-length Panx, HA-tagged, sequence (Q9W2H9 whole entry): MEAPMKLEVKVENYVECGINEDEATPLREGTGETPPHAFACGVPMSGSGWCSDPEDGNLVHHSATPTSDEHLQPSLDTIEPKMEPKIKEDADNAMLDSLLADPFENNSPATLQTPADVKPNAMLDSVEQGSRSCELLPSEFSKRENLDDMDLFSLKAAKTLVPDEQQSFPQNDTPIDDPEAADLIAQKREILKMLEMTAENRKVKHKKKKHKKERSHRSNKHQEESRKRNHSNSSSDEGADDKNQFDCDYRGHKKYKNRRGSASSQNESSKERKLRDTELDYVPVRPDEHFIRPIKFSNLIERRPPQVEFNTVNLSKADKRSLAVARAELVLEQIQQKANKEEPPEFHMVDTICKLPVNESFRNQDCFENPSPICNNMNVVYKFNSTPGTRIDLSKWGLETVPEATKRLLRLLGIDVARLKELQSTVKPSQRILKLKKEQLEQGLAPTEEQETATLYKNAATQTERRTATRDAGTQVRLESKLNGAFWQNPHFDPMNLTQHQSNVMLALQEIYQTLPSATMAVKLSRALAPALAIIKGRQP
Full-length Nxf2, 3xFLAG-tagged (from UniProt Q9VV73) aa811-814 (UBA mut.1), sequence (Q9VV73 whole entry, change not shown, the tested form may be a part): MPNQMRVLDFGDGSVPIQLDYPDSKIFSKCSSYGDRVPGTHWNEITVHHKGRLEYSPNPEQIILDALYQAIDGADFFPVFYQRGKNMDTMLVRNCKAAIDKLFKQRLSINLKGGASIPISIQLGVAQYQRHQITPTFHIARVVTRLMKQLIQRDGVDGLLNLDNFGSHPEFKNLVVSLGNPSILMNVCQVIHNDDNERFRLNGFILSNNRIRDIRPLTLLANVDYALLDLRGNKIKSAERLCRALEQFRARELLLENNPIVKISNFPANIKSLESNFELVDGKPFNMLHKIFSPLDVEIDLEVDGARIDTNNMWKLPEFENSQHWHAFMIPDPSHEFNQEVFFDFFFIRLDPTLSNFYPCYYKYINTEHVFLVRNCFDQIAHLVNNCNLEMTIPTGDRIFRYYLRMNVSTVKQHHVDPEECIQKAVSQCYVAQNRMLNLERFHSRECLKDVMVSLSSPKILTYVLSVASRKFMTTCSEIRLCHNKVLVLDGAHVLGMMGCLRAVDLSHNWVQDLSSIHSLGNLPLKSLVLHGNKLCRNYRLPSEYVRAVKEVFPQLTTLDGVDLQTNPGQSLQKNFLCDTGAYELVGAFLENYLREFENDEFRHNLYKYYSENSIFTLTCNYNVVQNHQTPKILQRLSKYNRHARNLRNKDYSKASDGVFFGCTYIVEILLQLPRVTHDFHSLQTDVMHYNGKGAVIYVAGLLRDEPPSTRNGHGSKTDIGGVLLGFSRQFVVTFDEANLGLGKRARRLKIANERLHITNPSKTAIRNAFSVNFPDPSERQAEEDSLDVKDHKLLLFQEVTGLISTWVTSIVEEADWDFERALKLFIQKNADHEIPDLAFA
Full-length Nxf2, 3xFLAG-tagged (from UniProt Q9VV73) aa755-758 (NTF2 mut.3), sequence (Q9VV73 whole entry, change not shown, the tested form may be a part): as above
Full-length Nxf2, 3xFLAG-tagged (from UniProt Q9VV73) aa754-756 (NTF2 mut.2), sequence (Q9VV73 whole entry, change not shown, the tested form may be a part): as above
Full-length Nxf2, 3xFLAG-tagged (from UniProt Q9VV73) aa835-836 (UBA mut.2), sequence (Q9VV73 whole entry, change not shown, the tested form may be a part): as above
Full-length Nxf2, 3xFLAG-tagged (from UniProt Q9VV73) aa751-754 (NTF2 mut.1), sequence (Q9VV73 whole entry, change not shown, the tested form may be a part): as above

Substance	log10 ratio (log10 coIP index [arbitrary unit])
Full-length Nxf2, 3xFLAG-tagged (from UniProt Q9VV73) aa811-814 (UBA mut.1)	-1.3
Full-length Nxf2, 3xFLAG-tagged (from UniProt Q9VV73) aa754-756 (NTF2 mut.2)	-0.32
Full-length Nxf2, 3xFLAG-tagged (from UniProt Q9VV73) aa835-836 (UBA mut.2)	-0.5

The remaining lines, values ahead:

log10 ratio (log10 coIP index [arbitrary unit])	Substance
-0.3	Full-length Nxf2, 3xFLAG-tagged (from UniProt Q9VV73) aa755-758 (NTF2 mut.3)
-0.55	Full-length Nxf2, 3xFLAG-tagged (from UniProt Q9VV73) aa751-754 (NTF2 mut.1)

From publication PMC6677536 (2019)
